Results on one substance are retold here after patent publication US20140212458A1.

In the test the target is BG505.T332N Env on Env-pseudotyped virus (HIV-1 BG505 (clade A)).

CD4-IgG2 (Fc fusion): the IC50, neutralization of BG505.T332N pseudovirus, TZM-bl cells is 0.433 µg/mL.
